From publication PMC5482323

How the values were obtained:
basigin (Homo sapiens) = basigin (Homo sapiens) (UniProt P35613); conditions: cited from earlier work
[1] = molecular target: basigin (CD147), Ig domains 1 and 2 of the short isoform (aa 22-205) (UniProt P35613); assay: SPR; BIAcore T200; basigin immobilised on a CM5 chip by amine coupling (950 RU); PfRH5 injected as a twofold dilution series from 2 uM, 120 s at 30 uL/min, 300 s dissociation; 20 C; 10 mM HEPES pH 7.4, 150 mM NaCl, 3 mM EDTA, 0.005% Tween-20, 2 mg/mL dextran, 1 mg/mL salmon sperm DNA; global 1:1 interaction model

For PfRH5 (from UniProt Q8IFM5), the Kd (basigin (Homo sapiens)) is given as 1000 nM.
With “Plasmodium falciparum reticulocyte-binding protein homolog 5 with C-terminal C-tag (EPEA) (from UniProt Q8IFM5 26-526) (domain or fragment)” the Kd [1] was 390 nM.
In the case of “Plasmodium falciparum reticulocyte-binding protein homolog 5 with C-terminal hexa-histidine tag (from UniProt Q8IFM5 26-526) (domain or fragment)”, the Kd [1] is reported as 830 nM.
